Consider nine molecules from patent publication US20200087373A1 (UNIVERSITY OF COPENHAGEN, published 2020).

Ends that are not written are not given here. * marks the point of attachment. C16 diacid = O=C(O)CCCCCCCCCCCCCCC(=O)*; Palmitoyl = CCCCCCCCCCCCCCCC(=O)*; Lauroyl = CCCCCCCCCCCC(=O)*

For this assay, the target named is T1, human GIP receptor (human, UniProt P48546 22-466).
T1 construct: whole, on cells; also called hGIPR
T1 sequence (looked up): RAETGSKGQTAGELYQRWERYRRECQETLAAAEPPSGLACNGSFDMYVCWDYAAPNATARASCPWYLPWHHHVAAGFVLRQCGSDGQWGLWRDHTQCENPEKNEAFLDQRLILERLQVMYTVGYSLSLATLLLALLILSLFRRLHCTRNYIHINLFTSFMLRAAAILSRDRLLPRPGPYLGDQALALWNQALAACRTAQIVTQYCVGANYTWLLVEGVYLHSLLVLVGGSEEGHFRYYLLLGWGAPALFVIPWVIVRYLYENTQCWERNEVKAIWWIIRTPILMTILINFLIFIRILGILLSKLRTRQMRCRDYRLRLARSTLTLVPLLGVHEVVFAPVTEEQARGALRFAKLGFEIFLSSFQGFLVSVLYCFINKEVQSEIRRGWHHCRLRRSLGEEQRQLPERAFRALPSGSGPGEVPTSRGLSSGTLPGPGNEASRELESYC
Kind of assay: 125I-hGIP competition binding, COS-7 cells expressing hGIPR.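 Also: nonspecific binding taken as radioligand bound by untransfected cells, binding buffer with or without 2% HSA.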

B1: AT101 [hGIP(3-30)NH2-C12/3] (peptide)
peptide: Lauroyl-EGTFISDYSIAMDKIHQQDFVNWLLAQK-NH2
Take B1: the half-inhibitory concentration (IC50) amounted to 9.9 nM and the “log IC50” value is -8 log M.

B2: AT130 [hGIP(3-30)NH2[D15E; H18A]-C12/30] (peptide)
peptide: EGTFISDYSIAMEKIAQQDFVNWLLAQK(C12 fatty acyl)-NH2
B2: the 50% inhibitory concentration (IC50) was 1210 nM and the “log IC50” value is -5.9 log M.

B3: AT107 [hGIP(3-30)NH2[T5W; D15E; H18A]-C16/16] (peptide)
peptide: EGWFISDYSIAMEK(Palmitoyl)IAQQDFVNWLLAQK-NH2
modifications: N-terminus assumed
SMILES: CCCCCCCCCCCCCCCC(=O)NCCCC[C@H](NC(=O)[C@H](CCC(=O)O)NC(=O)[C@H](CCSC)NC(=O)[C@H](C)NC(=O)[C@@H](NC(=O)[C@H](CO)NC(=O)[C@H](Cc1ccc(O)cc1)NC(=O)[C@H](CC(=O)O)NC(=O)[C@H](CO)NC(=O)[C@@H](NC(=O)[C@H](Cc1ccccc1)NC(=O)[C@H](Cc1c[nH]c2ccccc12)NC(=O)CNC(=O)[C@@H](N)CCC(=O)O)[C@@H](C)CC)[C@@H](C)CC)C(=O)N[C@H](C(=O)N[C@@H](C)C(=O)N[C@@H](CCC(N)=O)C(=O)N[C@@H](CCC(N)=O)C(=O)N[C@@H](CC(=O)O)C(=O)N[C@@H](Cc1ccccc1)C(=O)N[C@H](C(=O)N[C@@H](CC(N)=O)C(=O)N[C@@H](Cc1c[nH]c2ccccc12)C(=O)N[C@@H](CC(C)C)C(=O)N[C@@H](CC(C)C)C(=O)N[C@@H](C)C(=O)N[C@@H](CCC(N)=O)C(=O)N[C@@H](CCCCN)C(N)=O)C(C)C)[C@@H](C)CC
Take B3: the IC50 turned out to be 5220 nM and the “log IC50” value was -5.3 log M.

B4: AT143 [hGIP(3-30)NH2[M14L; H18K]-C16/18] (peptide)
peptide: EGTFISDYSIALDKIK(Palmitoyl)QQDFVNWLLAQK-NH2
modifications: N-terminus assumed
SMILES: CCCCCCCCCCCCCCCC(=O)NCCCC[C@H](NC(=O)[C@@H](NC(=O)[C@H](CCCCN)NC(=O)[C@H](CC(=O)O)NC(=O)[C@H](CC(C)C)NC(=O)[C@H](C)NC(=O)[C@@H](NC(=O)[C@H](CO)NC(=O)[C@H](Cc1ccc(O)cc1)NC(=O)[C@H](CC(=O)O)NC(=O)[C@H](CO)NC(=O)[C@@H](NC(=O)[C@H](Cc1ccccc1)NC(=O)[C@@H](NC(=O)CNC(=O)[C@@H](N)CCC(=O)O)[C@@H](C)O)[C@@H](C)CC)[C@@H](C)CC)[C@@H](C)CC)C(=O)N[C@@H](CCC(N)=O)C(=O)N[C@@H](CCC(N)=O)C(=O)N[C@@H](CC(=O)O)C(=O)N[C@@H](Cc1ccccc1)C(=O)N[C@H](C(=O)N[C@@H](CC(N)=O)C(=O)N[C@@H](Cc1c[nH]c2ccccc12)C(=O)N[C@@H](CC(C)C)C(=O)N[C@@H](CC(C)C)C(=O)N[C@@H](C)C(=O)N[C@@H](CCC(N)=O)C(=O)N[C@@H](CCCCN)C(N)=O)C(C)C
The molecule B4 came in with a 50% inhibitory concentration (IC50) of 80 nM.

B5: AT153 [hGIP(3-30)NH2[H18R; K30R]-C12/16] (peptide)
peptide: EGTFISDYSIAMDK(Lauroyl)IRQQDFVNWLLAQR-NH2
modifications: N-terminus assumed
SMILES: CCCCCCCCCCCC(=O)NCCCC[C@H](NC(=O)[C@H](CC(=O)O)NC(=O)[C@H](CCSC)NC(=O)[C@H](C)NC(=O)[C@@H](NC(=O)[C@H](CO)NC(=O)[C@H](Cc1ccc(O)cc1)NC(=O)[C@H](CC(=O)O)NC(=O)[C@H](CO)NC(=O)[C@@H](NC(=O)[C@H](Cc1ccccc1)NC(=O)[C@@H](NC(=O)CNC(=O)[C@@H](N)CCC(=O)O)[C@@H](C)O)[C@@H](C)CC)[C@@H](C)CC)C(=O)N[C@H](C(=O)N[C@@H](CCCNC(=N)N)C(=O)N[C@@H](CCC(N)=O)C(=O)N[C@@H](CCC(N)=O)C(=O)N[C@@H](CC(=O)O)C(=O)N[C@@H](Cc1ccccc1)C(=O)N[C@H](C(=O)N[C@@H](CC(N)=O)C(=O)N[C@@H](Cc1c[nH]c2ccccc12)C(=O)N[C@@H](CC(C)C)C(=O)N[C@@H](CC(C)C)C(=O)N[C@@H](C)C(=O)N[C@@H](CCC(N)=O)C(=O)N[C@@H](CCCNC(=N)N)C(N)=O)C(C)C)[C@@H](C)CC
Take B5: the IC50 was 316 nM and the “log IC50” value is -7 log M.

B6: AT158 [hGIP(3-30)NH2[H18K]-C16diacid/18] (peptide)
peptide: EGTFISDYSIAMDKIK(C16 diacid)QQDFVNWLLAQK-NH2
modifications: N-terminus assumed
SMILES: CC[C@H](C)[C@H](NC(=O)[C@H](CO)NC(=O)[C@H](Cc1ccc(O)cc1)NC(=O)[C@H](CC(=O)O)NC(=O)[C@H](CO)NC(=O)[C@@H](NC(=O)[C@H](Cc1ccccc1)NC(=O)[C@@H](NC(=O)CNC(=O)[C@@H](N)CCC(=O)O)[C@@H](C)O)[C@@H](C)CC)C(=O)N[C@@H](C)C(=O)N[C@@H](CCSC)C(=O)N[C@@H](CC(=O)O)C(=O)N[C@@H](CCCCN)C(=O)N[C@H](C(=O)N[C@@H](CCCCNC(=O)CCCCCCCCCCCCCCC(=O)O)C(=O)N[C@@H](CCC(N)=O)C(=O)N[C@@H](CCC(N)=O)C(=O)N[C@@H](CC(=O)O)C(=O)N[C@@H](Cc1ccccc1)C(=O)N[C@H](C(=O)N[C@@H](CC(N)=O)C(=O)N[C@@H](Cc1c[nH]c2ccccc12)C(=O)N[C@@H](CC(C)C)C(=O)N[C@@H](CC(C)C)C(=O)N[C@@H](C)C(=O)N[C@@H](CCC(N)=O)C(=O)N[C@@H](CCCCN)C(N)=O)C(C)C)[C@@H](C)CC
Molecule B6 gave an IC50 of 8.2 nM.

B7: AT144 [hGIP(3-30)NH2[K16R; H18K; K30R]-C16/18] (peptide)
peptide: EGTFISDYSIAMDRIK(Palmitoyl)QQDFVNWLLAQR-NH2
modifications: N-terminus assumed
SMILES: CCCCCCCCCCCCCCCC(=O)NCCCC[C@H](NC(=O)[C@@H](NC(=O)[C@H](CCCNC(=N)N)NC(=O)[C@H](CC(=O)O)NC(=O)[C@H](CCSC)NC(=O)[C@H](C)NC(=O)[C@@H](NC(=O)[C@H](CO)NC(=O)[C@H](Cc1ccc(O)cc1)NC(=O)[C@H](CC(=O)O)NC(=O)[C@H](CO)NC(=O)[C@@H](NC(=O)[C@H](Cc1ccccc1)NC(=O)[C@@H](NC(=O)CNC(=O)[C@@H](N)CCC(=O)O)[C@@H](C)O)[C@@H](C)CC)[C@@H](C)CC)[C@@H](C)CC)C(=O)N[C@@H](CCC(N)=O)C(=O)N[C@@H](CCC(N)=O)C(=O)N[C@@H](CC(=O)O)C(=O)N[C@@H](Cc1ccccc1)C(=O)N[C@H](C(=O)N[C@@H](CC(N)=O)C(=O)N[C@@H](Cc1c[nH]c2ccccc12)C(=O)N[C@@H](CC(C)C)C(=O)N[C@@H](CC(C)C)C(=O)N[C@@H](C)C(=O)N[C@@H](CCC(N)=O)C(=O)N[C@@H](CCCNC(=N)N)C(N)=O)C(C)C
With B7, the concentration for half-maximal inhibition (IC50) is 297 nM and the “log IC50” value was -6.53 log M.

B8: AT131 [hGIP(3-30)NH2[D15E; H18A]-C16/16] (peptide)
peptide: EGTFISDYSIAMEK(Palmitoyl)IAQQDFVNWLLAQK-NH2
modifications: N-terminus assumed
SMILES: CCCCCCCCCCCCCCCC(=O)NCCCC[C@H](NC(=O)[C@H](CCC(=O)O)NC(=O)[C@H](CCSC)NC(=O)[C@H](C)NC(=O)[C@@H](NC(=O)[C@H](CO)NC(=O)[C@H](Cc1ccc(O)cc1)NC(=O)[C@H](CC(=O)O)NC(=O)[C@H](CO)NC(=O)[C@@H](NC(=O)[C@H](Cc1ccccc1)NC(=O)[C@@H](NC(=O)CNC(=O)[C@@H](N)CCC(=O)O)[C@@H](C)O)[C@@H](C)CC)[C@@H](C)CC)C(=O)N[C@H](C(=O)N[C@@H](C)C(=O)N[C@@H](CCC(N)=O)C(=O)N[C@@H](CCC(N)=O)C(=O)N[C@@H](CC(=O)O)C(=O)N[C@@H](Cc1ccccc1)C(=O)N[C@H](C(=O)N[C@@H](CC(N)=O)C(=O)N[C@@H](Cc1c[nH]c2ccccc12)C(=O)N[C@@H](CC(C)C)C(=O)N[C@@H](CC(C)C)C(=O)N[C@@H](C)C(=O)N[C@@H](CCC(N)=O)C(=O)N[C@@H](CCCCN)C(N)=O)C(C)C)[C@@H](C)CC
Consider B8, for which the 50% inhibitory concentration (IC50) was found to be 6510 nM and the “log IC50” value was -5.2 log M.

B9: AT145 [hGIP(5-30)NH2[H18K]-C16/18] (peptide)
peptide: TFISDYSIAMDKIK(Palmitoyl)QQDFVNWLLAQK-NH2
modifications: N-terminus assumed
SMILES: CCCCCCCCCCCCCCCC(=O)NCCCC[C@H](NC(=O)[C@@H](NC(=O)[C@H](CCCCN)NC(=O)[C@H](CC(=O)O)NC(=O)[C@H](CCSC)NC(=O)[C@H](C)NC(=O)[C@@H](NC(=O)[C@H](CO)NC(=O)[C@H](Cc1ccc(O)cc1)NC(=O)[C@H](CC(=O)O)NC(=O)[C@H](CO)NC(=O)[C@@H](NC(=O)[C@H](Cc1ccccc1)NC(=O)[C@@H](N)[C@@H](C)O)[C@@H](C)CC)[C@@H](C)CC)[C@@H](C)CC)C(=O)N[C@@H](CCC(N)=O)C(=O)N[C@@H](CCC(N)=O)C(=O)N[C@@H](CC(=O)O)C(=O)N[C@@H](Cc1ccccc1)C(=O)N[C@H](C(=O)N[C@@H](CC(N)=O)C(=O)N[C@@H](Cc1c[nH]c2ccccc12)C(=O)N[C@@H](CC(C)C)C(=O)N[C@@H](CC(C)C)C(=O)N[C@@H](C)C(=O)N[C@@H](CCC(N)=O)C(=O)N[C@@H](CCCCN)C(N)=O)C(C)C
On to B9, for which the 50% inhibitory concentration (IC50) stood at 155 nM and the “log IC50” value was -6.8 log M.
